*1 amine or outer side, *2 acyl side, *3 side chain or, on linkers, in order; H or OH if unused. Side-chain parts run from the residue outwards. The star is where a group is joined. C18 diacid = O=C(O)CCCCCCCCCCCCCCCCC(=O)*; γGlu = O=C(O)[C@H](CCC(=O)[*:2])N[*:1]; Isovaleryl = CC(C)CC(=O)*; Ahx = NCCCCCC(=O)O

The labels stand for the following.
T1: human NPY2 receptor (human, UniProt P49146 1-381)
T1 construct: whole, on cells; also called hNPY2-R; hNPY2R
T1 sequence (looked up): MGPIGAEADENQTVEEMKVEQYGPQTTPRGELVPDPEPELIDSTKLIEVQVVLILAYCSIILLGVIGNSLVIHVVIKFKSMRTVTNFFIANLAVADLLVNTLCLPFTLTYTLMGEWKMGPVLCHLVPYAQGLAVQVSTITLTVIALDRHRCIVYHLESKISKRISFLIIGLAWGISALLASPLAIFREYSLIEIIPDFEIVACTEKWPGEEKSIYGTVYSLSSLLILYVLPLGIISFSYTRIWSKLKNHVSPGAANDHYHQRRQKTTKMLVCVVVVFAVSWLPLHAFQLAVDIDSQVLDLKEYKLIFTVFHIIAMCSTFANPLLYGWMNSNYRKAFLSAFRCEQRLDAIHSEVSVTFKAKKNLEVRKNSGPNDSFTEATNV

B1: Compound 38 (peptide)
peptide: Isovaleryl-APEK([Ahx-γGlu-C18 diacid])PEEDATPEELQEYYVSLRHYYNWLTRQRY-NH2
SMILES: CC(C)CC(=O)N[C@@H](C)C(=O)N1CCC[C@H]1C(=O)N[C@@H](CCC(=O)O)C(=O)N[C@@H](CCCCNC(=O)CCCCCNC(=O)CC[C@H](NC(=O)CCCCCCCCCCCCCCCCC(=O)O)C(=O)O)C(=O)N1CCC[C@H]1C(=O)N[C@@H](CCC(=O)O)C(=O)N[C@@H](CCC(=O)O)C(=O)N[C@@H](CC(=O)O)C(=O)N[C@@H](C)C(=O)N[C@H](C(=O)N1CCC[C@H]1C(=O)N[C@@H](CCC(=O)O)C(=O)N[C@@H](CCC(=O)O)C(=O)N[C@@H](CC(C)C)C(=O)N[C@@H](CCC(N)=O)C(=O)N[C@@H](CCC(=O)O)C(=O)N[C@@H](Cc1ccc(O)cc1)C(=O)N[C@@H](Cc1ccc(O)cc1)C(=O)N[C@H](C(=O)N[C@@H](CO)C(=O)N[C@@H](CC(C)C)C(=O)N[C@@H](CCCNC(=N)N)C(=O)N[C@@H](Cc1c[nH]cn1)C(=O)N[C@@H](Cc1ccc(O)cc1)C(=O)N[C@@H](Cc1ccc(O)cc1)C(=O)N[C@@H](CC(N)=O)C(=O)N[C@@H](Cc1c[nH]c2ccccc12)C(=O)N[C@@H](CC(C)C)C(=O)N[C@H](C(=O)N[C@@H](CCCNC(=N)N)C(=O)N[C@@H](CCC(N)=O)C(=O)N[C@@H](CCCNC(=N)N)C(=O)N[C@@H](Cc1ccc(O)cc1)C(N)=O)[C@@H](C)O)C(C)C)[C@@H](C)O
B2: Compound 42 (peptide)
peptide: Isovaleryl-APEK([Ahx-γGlu-C18 diacid])PEEPATPEELQRYYVSLRHYYNWLTRQRY-NH2
SMILES: CC(C)CC(=O)N[C@@H](C)C(=O)N1CCC[C@H]1C(=O)N[C@@H](CCC(=O)O)C(=O)N[C@@H](CCCCNC(=O)CCCCCNC(=O)CC[C@H](NC(=O)CCCCCCCCCCCCCCCCC(=O)O)C(=O)O)C(=O)N1CCC[C@H]1C(=O)N[C@@H](CCC(=O)O)C(=O)N[C@@H](CCC(=O)O)C(=O)N1CCC[C@H]1C(=O)N[C@@H](C)C(=O)N[C@H](C(=O)N1CCC[C@H]1C(=O)N[C@@H](CCC(=O)O)C(=O)N[C@@H](CCC(=O)O)C(=O)N[C@@H](CC(C)C)C(=O)N[C@@H](CCC(N)=O)C(=O)N[C@@H](CCCNC(=N)N)C(=O)N[C@@H](Cc1ccc(O)cc1)C(=O)N[C@@H](Cc1ccc(O)cc1)C(=O)N[C@H](C(=O)N[C@@H](CO)C(=O)N[C@@H](CC(C)C)C(=O)N[C@@H](CCCNC(=N)N)C(=O)N[C@@H](Cc1c[nH]cn1)C(=O)N[C@@H](Cc1ccc(O)cc1)C(=O)N[C@@H](Cc1ccc(O)cc1)C(=O)N[C@@H](CC(N)=O)C(=O)N[C@@H](Cc1c[nH]c2ccccc12)C(=O)N[C@@H](CC(C)C)C(=O)N[C@H](C(=O)N[C@@H](CCCNC(=N)N)C(=O)N[C@@H](CCC(N)=O)C(=O)N[C@@H](CCCNC(=N)N)C(=O)N[C@@H](Cc1ccc(O)cc1)C(N)=O)[C@@H](C)O)C(C)C)[C@@H](C)O
B3: Compound 44 (peptide)
peptide: Isovaleryl-APEK([Ahx-γGlu-C18 diacid])PEEDATPEELQRYYVGLRHYYNWLTRQRY-NH2
SMILES: CC(C)CC(=O)N[C@@H](C)C(=O)N1CCC[C@H]1C(=O)N[C@@H](CCC(=O)O)C(=O)N[C@@H](CCCCNC(=O)CCCCCNC(=O)CC[C@H](NC(=O)CCCCCCCCCCCCCCCCC(=O)O)C(=O)O)C(=O)N1CCC[C@H]1C(=O)N[C@@H](CCC(=O)O)C(=O)N[C@@H](CCC(=O)O)C(=O)N[C@@H](CC(=O)O)C(=O)N[C@@H](C)C(=O)N[C@H](C(=O)N1CCC[C@H]1C(=O)N[C@@H](CCC(=O)O)C(=O)N[C@@H](CCC(=O)O)C(=O)N[C@@H](CC(C)C)C(=O)N[C@@H](CCC(N)=O)C(=O)N[C@@H](CCCNC(=N)N)C(=O)N[C@@H](Cc1ccc(O)cc1)C(=O)N[C@@H](Cc1ccc(O)cc1)C(=O)N[C@H](C(=O)NCC(=O)N[C@@H](CC(C)C)C(=O)N[C@@H](CCCNC(=N)N)C(=O)N[C@@H](Cc1c[nH]cn1)C(=O)N[C@@H](Cc1ccc(O)cc1)C(=O)N[C@@H](Cc1ccc(O)cc1)C(=O)N[C@@H](CC(N)=O)C(=O)N[C@@H](Cc1c[nH]c2ccccc12)C(=O)N[C@@H](CC(C)C)C(=O)N[C@H](C(=O)N[C@@H](CCCNC(=N)N)C(=O)N[C@@H](CCC(N)=O)C(=O)N[C@@H](CCCNC(=N)N)C(=O)N[C@@H](Cc1ccc(O)cc1)C(N)=O)[C@@H](C)O)C(C)C)[C@@H](C)O
B4: Compound 41 (peptide)
peptide: Isovaleryl-APEK([Ahx-γGlu-C18 diacid])PEEDAEPEELQRYYTSLRHYYQWLTRQRY-NH2
SMILES: CC(C)CC(=O)N[C@@H](C)C(=O)N1CCC[C@H]1C(=O)N[C@@H](CCC(=O)O)C(=O)N[C@@H](CCCCNC(=O)CCCCCNC(=O)CC[C@H](NC(=O)CCCCCCCCCCCCCCCCC(=O)O)C(=O)O)C(=O)N1CCC[C@H]1C(=O)N[C@@H](CCC(=O)O)C(=O)N[C@@H](CCC(=O)O)C(=O)N[C@@H](CC(=O)O)C(=O)N[C@@H](C)C(=O)N[C@@H](CCC(=O)O)C(=O)N1CCC[C@H]1C(=O)N[C@@H](CCC(=O)O)C(=O)N[C@@H](CCC(=O)O)C(=O)N[C@@H](CC(C)C)C(=O)N[C@@H](CCC(N)=O)C(=O)N[C@@H](CCCNC(=N)N)C(=O)N[C@@H](Cc1ccc(O)cc1)C(=O)N[C@@H](Cc1ccc(O)cc1)C(=O)N[C@H](C(=O)N[C@@H](CO)C(=O)N[C@@H](CC(C)C)C(=O)N[C@@H](CCCNC(=N)N)C(=O)N[C@@H](Cc1c[nH]cn1)C(=O)N[C@@H](Cc1ccc(O)cc1)C(=O)N[C@@H](Cc1ccc(O)cc1)C(=O)N[C@@H](CCC(N)=O)C(=O)N[C@@H](Cc1c[nH]c2ccccc12)C(=O)N[C@@H](CC(C)C)C(=O)N[C@H](C(=O)N[C@@H](CCCNC(=N)N)C(=O)N[C@@H](CCC(N)=O)C(=O)N[C@@H](CCCNC(=N)N)C(=O)N[C@@H](Cc1ccc(O)cc1)C(N)=O)[C@@H](C)O)[C@@H](C)O
B5: Compound 39 (peptide)
peptide: Isovaleryl-APEK([Ahx-γGlu-C18 diacid])PEEDASPEALQEYYVSLRHYYNWLTRQRY-NH2
SMILES: CC(C)CC(=O)N[C@@H](C)C(=O)N1CCC[C@H]1C(=O)N[C@@H](CCC(=O)O)C(=O)N[C@@H](CCCCNC(=O)CCCCCNC(=O)CC[C@H](NC(=O)CCCCCCCCCCCCCCCCC(=O)O)C(=O)O)C(=O)N1CCC[C@H]1C(=O)N[C@@H](CCC(=O)O)C(=O)N[C@@H](CCC(=O)O)C(=O)N[C@@H](CC(=O)O)C(=O)N[C@@H](C)C(=O)N[C@@H](CO)C(=O)N1CCC[C@H]1C(=O)N[C@@H](CCC(=O)O)C(=O)N[C@@H](C)C(=O)N[C@@H](CC(C)C)C(=O)N[C@@H](CCC(N)=O)C(=O)N[C@@H](CCC(=O)O)C(=O)N[C@@H](Cc1ccc(O)cc1)C(=O)N[C@@H](Cc1ccc(O)cc1)C(=O)N[C@H](C(=O)N[C@@H](CO)C(=O)N[C@@H](CC(C)C)C(=O)N[C@@H](CCCNC(=N)N)C(=O)N[C@@H](Cc1c[nH]cn1)C(=O)N[C@@H](Cc1ccc(O)cc1)C(=O)N[C@@H](Cc1ccc(O)cc1)C(=O)N[C@@H](CC(N)=O)C(=O)N[C@@H](Cc1c[nH]c2ccccc12)C(=O)N[C@@H](CC(C)C)C(=O)N[C@H](C(=O)N[C@@H](CCCNC(=N)N)C(=O)N[C@@H](CCC(N)=O)C(=O)N[C@@H](CCCNC(=N)N)C(=O)N[C@@H](Cc1ccc(O)cc1)C(N)=O)[C@@H](C)O)C(C)C
B6: Compound 43 (peptide)
peptide: Isovaleryl-APAK([Ahx-γGlu-C18 diacid])PEAAAEPEELQRYYVSLRHYYNWLTRQRY-NH2
SMILES: CC(C)CC(=O)N[C@@H](C)C(=O)N1CCC[C@H]1C(=O)N[C@@H](C)C(=O)N[C@@H](CCCCNC(=O)CCCCCNC(=O)CC[C@H](NC(=O)CCCCCCCCCCCCCCCCC(=O)O)C(=O)O)C(=O)N1CCC[C@H]1C(=O)N[C@@H](CCC(=O)O)C(=O)N[C@@H](C)C(=O)N[C@@H](C)C(=O)N[C@@H](C)C(=O)N[C@@H](CCC(=O)O)C(=O)N1CCC[C@H]1C(=O)N[C@@H](CCC(=O)O)C(=O)N[C@@H](CCC(=O)O)C(=O)N[C@@H](CC(C)C)C(=O)N[C@@H](CCC(N)=O)C(=O)N[C@@H](CCCNC(=N)N)C(=O)N[C@@H](Cc1ccc(O)cc1)C(=O)N[C@@H](Cc1ccc(O)cc1)C(=O)N[C@H](C(=O)N[C@@H](CO)C(=O)N[C@@H](CC(C)C)C(=O)N[C@@H](CCCNC(=N)N)C(=O)N[C@@H](Cc1c[nH]cn1)C(=O)N[C@@H](Cc1ccc(O)cc1)C(=O)N[C@@H](Cc1ccc(O)cc1)C(=O)N[C@@H](CC(N)=O)C(=O)N[C@@H](Cc1c[nH]c2ccccc12)C(=O)N[C@@H](CC(C)C)C(=O)N[C@H](C(=O)N[C@@H](CCCNC(=N)N)C(=O)N[C@@H](CCC(N)=O)C(=O)N[C@@H](CCCNC(=N)N)C(=O)N[C@@H](Cc1ccc(O)cc1)C(N)=O)[C@@H](C)O)C(C)C

For this assay, the target named is T1, human NPY2 receptor. In words: RLB: displacement of 125I-PYY(1-36) from hNPY2R membranes. (In general: Loss of bound radioactivity is the signal in a displacement assay; it reports binding, not function.)
In general, Ki refers to a measure of affinity in units of concentration, obtained from inhibition or displacement. Low values mean a stronger hold on the target, high ones a looser hold on the target. In turn, B1 returned a Ki of 12.4 nM. The result for B2 reads 1.98 nM. B3 yielded an inhibitory constant (Ki) of 5.86 nM. This Ki lies about 3-fold higher than the previous one. In the case of B4, affinity was put at a Ki of 19.8 nM. For B5, the affinity, expressed as Ki, was 2.73 nM. In turn, B6 displayed a Ki of 2.49 nM. The Ki values of the last two molecules are within 1.5-fold of each other.
